The target in experiment [1] is human FcRn (human) (UniProt P55899). In words: BIAcore equilibrium analysis, FcRn immobilised on CM5 chip, pH 6.0.
The target is the same in experiment [2]. In words: BIAcore, FcRn immobilised, pH 6.0.
A further experiment addresses rat FcRn (rat) (UniProt P13599). In words: BIAcore, FcRn immobilised.
For experiment [3], the target named is T1, human CD20 on WIL2-S cells (human, UniProt P11836 1-297).
T1 construct: whole, on cells; also called CD20 antigen; hCD20
T1 sequence (looked up): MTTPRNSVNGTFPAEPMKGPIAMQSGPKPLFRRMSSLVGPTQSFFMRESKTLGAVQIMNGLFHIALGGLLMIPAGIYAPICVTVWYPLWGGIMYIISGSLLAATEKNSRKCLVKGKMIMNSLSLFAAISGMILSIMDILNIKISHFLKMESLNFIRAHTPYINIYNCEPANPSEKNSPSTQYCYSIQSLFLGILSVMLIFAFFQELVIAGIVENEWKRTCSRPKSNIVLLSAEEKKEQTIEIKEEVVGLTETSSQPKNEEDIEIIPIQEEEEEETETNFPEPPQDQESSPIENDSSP
In words: competitive Scatchard analysis, WIL2-S cells; labelled 125I-2H7.v511; ± standard error of fit.
Method: (§1) All dilutions were performed in binding assay buffer (DMEM media containing 0.5% bovine serum albumin, 25 mM HEPES pH 7.2, and 0.01% sodium azide). […] Serial dilutions (0.05 mL) of unlabelled antibody were added and mixed. 30,000 WIL2-S cells in a volume of 0.05 mL was added to each well. The plates were sealed and incubated at room temperature for 24 h, then centrifuged for 15 min at 2,500 RPM. The supernatant was then aspirated and the cell pellets were washed and centrifuged. The supernatant was again aspirated, and the pellets were dissolved in 1N NaOH and transferred to tubes for gamma counting.

Experiment [4] deals with T1, human CD20 on WIL2-S cells. In words: competitive Scatchard analysis, WIL2-S cells; labelled competitor 125I-2H7.v138; ± standard error of fit.
Method: as §1
Another experiment addresses T2, soluble CD20 (Genentech) (UniProt P11836 1-297, limits assumed).
T2 construct: Coated on ELISA plates; also called solubilized CD20
T2 sequence (looked up): T1 sequence (looked up)
In words: ELISA on plate-coated soluble CD20, bound IgG detected with HRP anti-human Fab, OD450. (In general: In an ELISA, binding on a coated surface is turned into a signal by an enzyme label.)

Experiment [5] concerns the target T1, human CD20 on WIL2-S cells. In words: cell-based ELISA, WIL2-S cells; conc. 2H7.v16 / conc. variant.
Method: To measure relative binding affinities to the CD20 antigen, a cell-based ELISA assay was developed. […] The cells were washed with PBS containing 1% FBS (assay buffer) and seeded at 250-300,000 cell/well in 96-well round bottom plates (Nunc, Roskilde, Denmark). […] The plates were buried in ice and incubated for 45 min. To remove the unbound antibody, 0.1 mL assay buffer were added to the wells. Plates were centrifuged and supernatants were removed. Cells were washed two more times with 0.2 mL assay buffer. Antibody bound to the plates was detected by adding peroxidase conjugated goat anti-human Fc antibody (Jackson ImmunoResearch, West Grove, Pa.) to the plates. After a 45 min incubation, cells were washed as described before. TMB substrate (3,3′,5,5′-tetramethyl benzidine; Kirkegaard & Perry Laboratories, Gaithersburg, Md.) was added to the plates. The reaction was stopped by adding 1 M phosphoric acid. Titration curves were fit with a four-parameter nonlinear regression curve-fitting program (KaleidaGraph, Synergy software, Reading, Pa.). The absorbance at the midpoint of the titration curve (mid-OD) and its corresponding concentration of the standard were determined. Then the concentration of each variant at this mid-OD was determined, and the concentration of the standard was divided by that of each variant.

Chain of human FcRn (human) (P55899 24-297 limits assumed, chain 1 of 2): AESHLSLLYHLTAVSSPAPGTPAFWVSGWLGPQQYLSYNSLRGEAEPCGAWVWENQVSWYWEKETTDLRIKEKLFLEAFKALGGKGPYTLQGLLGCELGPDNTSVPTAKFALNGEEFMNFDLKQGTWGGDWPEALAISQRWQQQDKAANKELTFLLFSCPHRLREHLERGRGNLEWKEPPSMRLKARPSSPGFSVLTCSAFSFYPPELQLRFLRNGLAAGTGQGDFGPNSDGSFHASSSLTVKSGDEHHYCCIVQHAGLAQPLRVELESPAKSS
Chain of human FcRn (human) (chain, as listed by the source limits assumed, chain 2 of 2): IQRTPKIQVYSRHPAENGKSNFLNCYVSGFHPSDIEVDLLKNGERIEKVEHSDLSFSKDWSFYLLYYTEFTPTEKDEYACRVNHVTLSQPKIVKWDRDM
Chain of rat FcRn (rat) (P13599 23-298 limits assumed): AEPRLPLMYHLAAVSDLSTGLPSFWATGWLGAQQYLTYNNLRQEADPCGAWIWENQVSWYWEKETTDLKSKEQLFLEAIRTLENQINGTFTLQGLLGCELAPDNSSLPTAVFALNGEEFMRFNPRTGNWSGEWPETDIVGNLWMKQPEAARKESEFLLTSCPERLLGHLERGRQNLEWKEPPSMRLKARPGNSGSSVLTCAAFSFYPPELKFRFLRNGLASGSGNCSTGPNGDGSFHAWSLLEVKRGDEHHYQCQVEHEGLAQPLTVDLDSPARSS
Method for soluble CD20 (Genentech): As an additional comparison of the binding activity of 2H7 variants, an ELISA was performed with solubilized CD20.
Serial dilutions of samples in 0.5% BSA were incubated on the plates for 2 h. After washing, bound antibodies were detected with HRP-conjugated anti-human Fab antibody (Goat anti-human Ig, Fab′2-HRP conjugate, from NB) using 3,3′,5,5′-tetramethyl benzidine (Kirkegaard and Perry Laboratories, Gaithersburg, Md.) as substrate. Absorbance was read at 450 nm. Titration curves were fit with a four-parameter nonlinear regression curve-fitting program (KaleidaGraph; Synergy Software, Reading, Pa.). Concentrations of antibody variants corresponding to the midpoint absorbance of the titration curve of the standard were calculated.

On to soluble Fc variant N434W, for which the Kd (as a rule, the equilibrium constant for the complex coming apart) with human FcRn (human) [1] was 4 nM. The molecule further came in with a fold increase in affinity over wild-type Fc with human FcRn (human) [2] of 170 fold. This molecule also yielded a fold better binding relative to wild-type Fc in the experiment with rat FcRn (rat) of 10 fold. In the experiment with human FcRn (human) [2], soluble Fc variant N434A came in with a fold increase in affinity over wild-type Fc of 2.7 fold. The molecule parental hingeless Fc (wild-type) gave a dissociation constant (Kd) in the experiment with human FcRn (human) [1] of 700 nM. Molecule soluble Fc variant N434A+E380A+T307A showed a fold increase in affinity over wild-type Fc in the experiment with human FcRn (human) [2] of 14 fold. On the same count and under the same terms, the same measure for soluble Fc variant N434F: 9 fold.

B1: humanized 2H7.v511 (antibody, human IgG1, kappa)
heavy: EVQLVESGGGLVQPGGSLRLSCAASGYTFTSYNMHWVRQAPGKGLEWVGAIYPGNGATSYNQKFKGRFTISVDKSKNTLYLQMNSLRAEDTAVYYCARVVYYSYRYWYFDVWGQGTLVTVSSASTKGPSVFPLAPSSKSTSGGTAALGCLVKDYFPEPVTVSWNSGALTSGVHTFPAVLQSSGLYSLSSVVTVPSSSLGTQTYICNVNHKPSNTKVDKKVEPKSCDKTHTCPPCPAPELLGGPSVFLFPPKPKDTLMISRTPEVTCVVVDVSHEDPEVKFNWYVDGVEVHNAKTKPREEQYNATYRVVSVLTVLHQDWLNGKEYKCKVSNAALPAPIAATISKAKGQPREPQVYTLPPSREEMTKNQVSLTCLVKGFYPSDIAVEWESNGQPENNYKTTPPVLDSDGSFFLYSKLTVDKSRWQQGNVFSCSVMHEALHNHYTQKSLSLSPGK
light: DIQMTQSPSSLSASVGDRVTITCRASSSVSYLHWYQQKPGKAPKPLIYAPSNLASGVPSRFSGSGSGTDFTLTISSLQPEDFATYYCQQWAFNPPTFGQGTKVEIKRTVAAPSVFIFPPSDEQLKSGTASVVCLLNNFYPREAKVQWKVDNALQSGNSQESVTEQDSKDSTYSLSSTLTLSKADYEKHKVYACEVTHQGLSSPVTKSFNRGEC
notes: Full-length IgG1; VH D56A, N100Y, S100aR; VL M32L, S92A; Fc S298A, K326A, E333A, K334A vs v16; also called hu2H7.v511
In the case of B1, the Kd in experiment [3] was found to be 0.45 nM; in experiment [4] it was 0.11 nM. In addition, the EC50 (read off the curve) – broadly, the concentration that produces a half-maximal response – in the experiment with soluble CD20 (Genentech) was roughly 0.02 mg/L.

B2: humanized 2H7.v166 (antibody, human IgG1, kappa, V domains shown)
VH: EVQLVESGGGLVQPGGSLRLSCAASGYTFTSYNMHWVRQAPGKGLEWVGAIYPGNGDTSYNQKFKGRFTISVDKSKNTLYLQMNSLRAEDTAVYYCARVVYYGGDWYFDVWGQGTLVTVSS
VL: DIQMTQSPSSLSASVGDRVTITCRASSSVSYMHWYQQKPGKAPKPLIYAPSNLASGVPSRFSGSGSGTDFTLTISSLQPEDFATYYCQQWSFNPPTFGQGTKVEIKR
notes: IgG1; changes vs v16
In the case of B2, the Relative binding in experiment [5] was determined as 0.99 ratio.

The values above are taken from patent US20060246004A1 (Genentech, published 2006).
